Data set [1] can be described thus: Phase 1b study GS-US-536-5816: pharmacokinetics of TAB, ZAB and LEN. The following applies: single dose; through Week 26.
Data set [2] can be described thus: Phase 1b study GS-US-536-5816: safety (adverse events).
Source text: Participants were monitored clinically with plasma HIV-1 RNA every four weeks until the primary endpoint at Week 26. The primary endpoint was safety; secondary endpoints included virologic outcomes by FDA Snapshot analysis.
A further data set has as its system HIV. In words: PK-PD viral dynamic model and simulations of viral rebound during ATI. The following applies: in vivo, PK-PD model. Set-up: species or system human. The procedure:
Population PK and PK-PD models were developed using a nonlinear mixed-effect modeling approach based on serum bNAb concentration and/or viral dynamic data from 6 efficacy studies in people with HIV, and 3 PK studies of 3BNC117/TAB (GS-5423) and/or 10-1074/ZAB (GS-2872) (Table 4).
bNAb concentrations were measured by ELISA assays, except for study NCT03526848 (Gaebler, et al. Nature. 2022; 606:368-374). For this study, concentrations measured by TZM-bl assay (Sarzotti-Kelsoe, et al. J Immunol Methods. 2014; 409:131-146) were transformed to ELISA data using a log-linear correlation model calibrated based on data from study NCT02825797 (Mendoza, et al. Nature. 2018; 561:479-484; Bar-On Y, et al. Nat Med. 2018; 24:1701-1707) where PK was measured using both methods. The PK data of the bNAbs were modeled by 2-compartment linear PK models. Covariates (demographics, disease status, combination treatment) were tested using stepwise forward addition (α=0.01) and backward elimination (α=0.001) methods. The PK-PD model describes viral replication using a logistic growth function and viral elimination using first-order kinetics, with a nonlinear saturable (Emax) model to describe the relationship between bNAb concentrations and viral elimination rates. […]

For data set [3] the following is noted: in vivo, cited from earlier work.
Data set [4] can be described thus: Population PK modeling and simulation of GS-5423 and GS-2872, flat vs weight-based dosing every 6 months. Also on record: species or system human. On the procedure:
TAB and ZAB serum concentrations were measured using validated […]-electrochemiluminescence immunoassays. A two-compartment population PK model was developed to describe the PK data of GS-5423 and GS-2872 following IV and SC administration in HIV− and HIV+ participants. See, Joel S. Owen, Jill Fiedler-Kelly, “Introduction to Population Pharmacokinetic/Pharmacodynamic Analysis with Nonlinear Mixed Effects Models”, Wiley; 1st edition, 2014 (ISBN: 9780470582299). PopPK models of TAB and ZAB were developed using nonlinear mixed-effect modeling. Covariate analyses were performed to identify significant covariates, including body weight, effects of demographics, baseline characteristics, combination regimen, and disease status, on the PK parameters of GS-5423 and GS-2872. The population PK models were simulated to predict the PK profiles of GS-5423 and GS-2872 following IV administration of 30 or 10 mg/kg body weight normalized dosing or equivalent flat doses every 6 months. Model simulations were performed to predict the concentrations of TAB and ZAB following flat vs weight-based dosing.

`CC(C)(C#Cc1ccc(-c2ccc(Cl)c3c(NS(C)(=O)=O)nn(CC(F)(F)F)c23)c([C@H](Cc2cc(F)cc(F)c2)NC(=O)Cn2nc(C(F)(F)F)c3c2C(F)(F)[C@@H]2C[C@H]32)n1)S(C)(=O)=O` [lenacapavir]: in data set [1], the therapeutic concentrations result was “maintained through Week 26”. Also, the “injection site reactions related to subcutaneous administration” value in data set [2] (17/20 patients, LEN 927 mg SC) stood at 85%. Besides, the “participants with grade 3 AEs” value in data set [2] (injection site cellulitis and injection site erythema at site of LEN injection) is “Two participants”.
As to “zinlirvimab: anti-HIV gp120 V3 glycan-binding bNAb; 10-1074 with M428L and N434S (LS) Fc substitutions; heavy and light chains SEQ ID NOs: 433 and 434”, the “estimated mean serum concentration corresponding to 50% maximum drug effect (EC50)” value in the data set with HIV was 32.2 µg/mL. Besides, the “non-solicited AEs within 4 weeks of IP administration” value in data set [3] (ip) is 33.7%. For the same compound, in data set [3], the “Grade 3 AE: decrease in hemoglobin” value is on record as 1%, the “Grade 3 AE: elevated blood pressure” value was 4%, the “Grade 3 AE: increased left-sided weakness” value was 1% and the “Grade 3 AE: nephrolithiasis” value is given as 1%. For the same compound, in data set [3], the “Grade 3 AE: proteinuria” value is 1%, the “most common AE: localized musculoskeletal pain” value was 8%, the “most common AE: symptoms of gastroenteritis” value is 8% and the “most common AE: upper respiratory infections” value is given as 25%. In addition, in data set [3], the “non-solicited AEs of Grade 3 severity” value was 9.3%, the “non-solicited AEs of grade 2 severity” value is 11.6%, the “non-solicited AEs reported (number)” value is given as 86 and the “solicited AE: erythema/skin discoloration at the administration site” value was 8%. Besides, in data set [3], the “solicited AE: feverishness” value is on record as 4%, the “solicited AE: headache” value is listed as 4%, the “solicited AE: induration at the administration site” value is 2% and the “solicited AE: malaise/fatigue” value is listed as 3%. In data set [3], the “solicited AE: myalgia” value was 1%, the “solicited AE: pain at the administration site” value is reported as 4% and the “solicited AEs reported (number)” value is on record as 20. For the same compound, in data set [4] (PopPK covariate analysis), the “clearance in viremic PWH compared with those suppressed at baseline” value is given as “significant increase in the clearance”. In addition, the “effect of increased body weight on PK parameters” value in data set [4] (PopPK covariate analysis in PWH) was “increased volume of distribution and clearance”. In data set [1], the therapeutic concentrations result is recorded as “maintained through Week 26”. In addition, the tolerability result in data set [2] (up to 30 mg/kg alone or in combination, GS-US-536-5816 and previous studies in HIV+ participants) is “well-tolerated”.

These data come from US20240083984A1, “DOSING AND SCHEDULING REGIMEN FOR BROADLY NEUTRALIZING ANTIBODIES” (priority 2022, published 2024).
